Literature values, collected in article PMC8707981.
Where two headings read alike, the source gives them in different places.

Key:
[1] = target: Spike protein RBD (SARS-CoV-2) (UniProt P0DTC2)
[2] = target: Spike protein RBD (SARS-CoV-2) (UniProt P0DTC2); remark: listed apart in the source

| Substance | Kd [1] | Kd [2] |
| --- | --- | --- |
| Casirivimab | 0.0458 nM |  |
| Imdevimab |  | 0.0467 nM |
